Experimental data reported in article PMC8844825 (iScience, 2022).

B1: Bcl10 (endogenous, Jurkat T cells) (natural protein, human (endogenous in Jurkat), UniProt O95999 1-233, looked up)
chain: MEPTAPSLTEEDLTEVKKDALENLRVYLCEKIIAERHFDHLRAKKILSREDTEEISCRTSSRKRAGKLLDYLQENPKGLDTLVESIRREKTQNFLIQKITDEVLKLRNIKLEHLKGLKCSSCEPFPDGATNNLSRSNSDESNFSEKLRASTVMYHPEGESSTTPFFSTNSSLNLPVLEVGRTENTIFSSTTLPRPGDPGAPPLPPDLQLEEEGTCANSSEMFLPLRSRTVSRQ
B2: HOIP (endogenous, Jurkat T cells) (natural protein, human (endogenous in Jurkat), UniProt Q96EP0 1-1072, looked up)
chain: MPGEEEERAFLVAREELASALRRDSGQAFSLEQLRPLLASSLPLAARYLQLDAARLVRCNAHGEPRNYLNTLSTALNILEKYGRNLLSPQRPRYWRGVKFNNPVFRSTVDAVQGGRDVLRLYGYTEEQPDGLSFPEGQEEPDEHQVATVTLEVLLLRTELSLLLQNTHPRQQALEQLLEDKVEDDMLQLSEFDPLLREIAPGPLTTPSVPGSTPGPCFLCGSAPGTLHCPSCKQALCPACDHLFHGHPSRAHHLRQTLPGVLQGTHLSPSLPASAQPRPQSTSLLALGDSSLSSPNPASAHLPWHCAACAMLNEPWAVLCVACDRPRGCKGLGLGTEGPQGTGGLEPDLARGRWACQSCTFENEAAAVLCSICERPRLAQPPSLVVDSRDAGICLQPLQQGDALLASAQSQVWYCIHCTFCNSSPGWVCVMCNRTSSPIPAQHAPRPYASSLEKGPPKPGPPRRLSAPLPSSCGDPEKQRQDKMREEGLQLVSMIREGEAAGACPEEIFSALQYSGTEVPLQWLRSELPYVLEMVAELAGQQDPGLGAFSCQEARRAWLDRHGNLDEAVEECVRTRRRKVQELQSLGFGPEEGSLQALFQHGGDVSRALTELQRQRLEPFRQRLWDSGPEPTPSWDGPDKQSLVRRLLAVYALPSWGRAELALSLLQETPRNYELGDVVEAVRHSQDRAFLRRLLAQECAVCGWALPHNRMQALTSCECTICPDCFRQHFTIALKEKHITDMVCPACGRPDLTDDTQLLSYFSTLDIQLRESLEPDAYALFHKKLTEGVLMRDPKFLWCAQCSFGFIYEREQLEATCPQCHQTFCVRCKRQWEEQHRGRSCEDFQNWKRMNDPEYQAQGLAMYLQENGIDCPKCKFSYALARGGCMHFHCTQCRHQFCSGCYNAFYAKNKCPEPNCRVKKSLHGHHPRDCLFYLRDWTALRLQKLLQDNNVMFNTEPPAGARAVPGGGCRVIEQKEVPNGLRDEACGKETPAGYAGLCQAHYKEYLVSLINAHSLDPATLYEVEELETATERYLHVRPQPLAGEDPPAYQARLLQKLTEEVPLGQSIPRRRK

Molecular target: T1, myc-WT CARD11-FLAGx2 (murine, UniProt Q8CIS0 1-1159)
T1 sequence (looked up): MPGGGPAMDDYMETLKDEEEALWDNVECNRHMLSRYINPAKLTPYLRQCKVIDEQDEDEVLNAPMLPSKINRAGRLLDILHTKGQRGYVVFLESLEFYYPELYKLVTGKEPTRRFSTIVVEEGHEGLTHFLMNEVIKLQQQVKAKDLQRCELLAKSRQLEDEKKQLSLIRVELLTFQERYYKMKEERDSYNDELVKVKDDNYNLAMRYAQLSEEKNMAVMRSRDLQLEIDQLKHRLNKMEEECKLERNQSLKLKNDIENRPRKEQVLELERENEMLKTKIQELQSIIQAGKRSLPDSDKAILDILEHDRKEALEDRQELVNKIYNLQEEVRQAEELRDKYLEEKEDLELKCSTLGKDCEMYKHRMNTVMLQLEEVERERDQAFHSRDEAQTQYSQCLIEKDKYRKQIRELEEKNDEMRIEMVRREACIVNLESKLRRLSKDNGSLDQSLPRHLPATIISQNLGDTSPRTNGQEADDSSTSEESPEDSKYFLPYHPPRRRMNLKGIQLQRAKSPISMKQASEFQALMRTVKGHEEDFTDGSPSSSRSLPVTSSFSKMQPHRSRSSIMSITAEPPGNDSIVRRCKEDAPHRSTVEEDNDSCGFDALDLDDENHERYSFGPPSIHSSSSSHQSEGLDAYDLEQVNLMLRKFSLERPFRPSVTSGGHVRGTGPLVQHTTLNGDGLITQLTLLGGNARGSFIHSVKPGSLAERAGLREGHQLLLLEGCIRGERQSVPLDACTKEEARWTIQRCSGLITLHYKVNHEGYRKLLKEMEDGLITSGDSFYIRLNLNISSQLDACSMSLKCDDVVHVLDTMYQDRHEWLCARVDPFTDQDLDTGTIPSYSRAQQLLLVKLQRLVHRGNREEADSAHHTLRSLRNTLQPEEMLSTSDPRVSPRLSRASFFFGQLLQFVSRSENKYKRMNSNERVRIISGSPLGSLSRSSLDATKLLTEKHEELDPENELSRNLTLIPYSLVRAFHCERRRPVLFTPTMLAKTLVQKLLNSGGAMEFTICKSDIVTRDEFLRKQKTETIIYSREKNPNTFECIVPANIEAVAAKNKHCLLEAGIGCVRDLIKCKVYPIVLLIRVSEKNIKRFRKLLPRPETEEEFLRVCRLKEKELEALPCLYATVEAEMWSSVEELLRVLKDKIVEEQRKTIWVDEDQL
Assay: co-IP

Binder | relative inducible binding (bound/input, normalised to WT)
B1 | 1 relative to WT
B2 | 1 relative to WT
